We go through two molecules from patent publication US20250277048A1 (Regeneron, published 2025).

One may read the EC50 as the concentration giving half of the maximal effect. A lower EC50 goes with greater potency. A word on the Kd: it is a measure of binding affinity in units of concentration. Read a high Kd as weaker binding. In general, koff refers to the first-order rate constant of dissociation. A low value points to slow dissociation. For orientation: kon means the rate constant with which the complex forms. A lower kon goes with slow association.

The target in assay [1] is T1, human CD40 (hCD40) expressed on cells (human, UniProt P25942 21-277). Kind of assay: cell-based or functional assay.
Assay [2] concerns the target T1, human CD40 (hCD40) expressed on cells. Description: flow cytometry, HEK293/D9/hCD40 cells. In short, it runs like this:
(§1)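 Cells were incubated 30 min at 4 °C with antibody dilutions from 1.7 pM to 100 nM in 2% FBS/PBS, then with 2.5 μg/ml APC anti-human IgG Fcγ, and fixed. Multiplexed populations were separated by CellTrace signature. APC median fluorescence was fitted with a four-parameter logistic model, and MFI >1500 at 100 nM counted as specific binding.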
For orientation: A flow cytometer gives signals particle by particle.

The target is the same in assay [3]. Description: cell-based or functional assay. This is another data set of the same source.
Assay [4] concerns the target T2, Macaca fascicularis CD40 (mfCD40) expressed on HEK293/D9/mfCD40 cells (Macaca fascicularis, UniProt G7PG38 21-278).
T2 construct: whole, on cells; also called monkey CD40
Description: flow cytometry, HEK293/D9/mfCD40 cells. An outline of the steps:
as §1

In assay [5] the target is T3, human CD40 extracellular domain expressed with a C-terminal myc-myc-hexahistidine tag (human).
T3 construct: also called hCD40-MMH; hCD40-mmH
Description: SPR Biacore 4000, mAb captured, 37C. How it is done:
(§2) The equilibrium dissociation constants (KD) for anti-CD40 bivalent and bispecific monoclonal antibodies (mAbs) were determined using a real-time surface plasmon resonance (SPR)-based Biacore 4000 biosensor. All binding studies were performed in 10 mM HEPES, 150 mM NaCl, 3 mM EDTA, and 0.05% v/v surfactant Tween-20, pH 7.4 (HBS-ET) running buffer at 25° C. and 37° C. The Biacore CM5 sensor surface was first derivatized by amine coupling with a monoclonal mouse anti-human Fc antibody (REGN2567) to capture anti-CD40 bivalent parental and anti-CD40×CD40 bispecific antibodies. Different concentrations of CD40 reagents, human CD40 extracellular domain expressed with a C-terminal myc-myc-hexahistidine tag (SEQ ID NO: 1114) (“hCD40-MMH”; REGN3094; SEQ ID NO: 53), monkey CD40 extracellular domain expressed with a C-terminal myc-myc-hexahistidine tag (SEQ ID NO: 1114) (“mfCD40-MMH”; REGN3097; SEQ ID NO: 54), and mouse CD40 extracellular domain expressed with a C-terminal myc-myc-hexahistidine tag (SEQ ID NO: 1114) (“mCD40-MMH”; REGN3098; SEQ ID NO: 55), at concentrations ranging from 3.7 nM to 100 nM or 3.3 nM to 90 nM in a series of 3-fold dilutions prepared in HBS-ET running buffer were injected at a flow rate of 30 μL/min for 4 minutes or 50 μL/min for 5 minutes. The dissociation of different CD40 reagents bound to anti-CD40 bivalent parental and anti-CD40×CD40 bispecific antibodies was monitored for 10 minutes in HBS-ET running buffer. At the end of each cycle, the anti-CD40 bivalent parental and anti-CD40×CD40 bispecific antibodies capture surface was regenerated using a 12 sec injection of 20 mM H₃PO₄.
(§3) The association rate (ka) and dissociation rate (kd) were determined by fitting the real-time binding sensorgrams to a 1:1 binding model with mass transport limitation using Scrubber 2.0c curve-fitting software. Binding dissociation equilibrium constant (KD) and dissociative half-life (t_{1/2}) were calculated from the kinetic rates as: KD(M)=kd/kₐ, and t_{1/2} (min)=[ln(2)/(60*kd)].

Assay [6] concerns the target T4, mouse CD40 extracellular domain expressed with a C-terminal myc-myc-hexahistidine tag (mouse).
T4 construct: also called mCD40-MMH; REGN3098
T4 chain: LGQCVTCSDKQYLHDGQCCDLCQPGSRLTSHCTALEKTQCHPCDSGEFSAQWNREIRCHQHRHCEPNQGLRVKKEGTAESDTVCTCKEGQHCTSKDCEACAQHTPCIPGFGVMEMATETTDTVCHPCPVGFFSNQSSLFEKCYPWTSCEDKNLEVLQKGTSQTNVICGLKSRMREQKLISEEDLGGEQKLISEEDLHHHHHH
Description: SPR Biacore 4000, mAb captured, 37C. The procedure:
as §2, §3
(In general: SPR reads the build-up and loss of mass on a sensor chip optically.)

The target in assay [7] is T1, human CD40 (hCD40) expressed on cells. Kind of assay: cell-based or functional assay. The source holds these as a separate data set.
For assay [8] the target is unchanged. Kind of assay: flow cytometry, Ramos 2G6.4C10 cells. In short, it runs like this:
as §1

T1 sequence (P25942 21-277): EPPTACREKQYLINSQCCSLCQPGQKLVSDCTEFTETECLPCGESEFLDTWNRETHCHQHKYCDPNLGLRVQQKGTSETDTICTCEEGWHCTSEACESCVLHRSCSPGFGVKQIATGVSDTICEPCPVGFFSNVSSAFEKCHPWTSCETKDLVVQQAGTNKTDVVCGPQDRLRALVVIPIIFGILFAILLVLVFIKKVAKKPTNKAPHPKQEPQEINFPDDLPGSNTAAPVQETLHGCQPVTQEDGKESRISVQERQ

B1: 30027P2 (antibody, human IgG4 S228P, kappa, V domains shown)
VH: EVQLVESGGGLVQPGGSLRLSCAASGFTFSSYAMNWVRQAPGKGLEWVSIISGTIGKTYYADSVKGRFTISRDNSKNTLYLQMNSLRGEDTAVYYCAKDTERDITGSPFDYWGQGTLVTVSS
VL: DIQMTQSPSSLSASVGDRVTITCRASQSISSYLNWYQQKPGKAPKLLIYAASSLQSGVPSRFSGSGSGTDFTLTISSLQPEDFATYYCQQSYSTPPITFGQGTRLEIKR
notes: parental bivalent anti-CD40 mAb; common light chain; also called H4sH30027P2
With B1, in assay [1], the “EC50 (potentiation), 10 nM hCD40L, THP-1 NFkB-luc” value came to 0.00251 nM; the “Max % activation, no ligand, THP-1 NFkB-luc” value is 2%; the “Max % inhibition, 10 nM hCD40L, THP-1 NFkB-luc” value was -61%. Also, in assay [2], the EC50 was 0.72 nM and the “MFI at 100 nM” value is 20900 MFI. For the same molecule, in assay [3], the “IC50, 900 pM hCD40L, Raji NFkB-luc” value amounted to 8.95e-12 M; the “Max % activation, no ligand, Raji NFkB-luc” value is 9%; the “Max % inhibition, 900 pM hCD40L, Raji NFkB-luc” value stood at 67%. Besides, in assay [4], the EC50 is 1 nM and the “MFI at 100 nM” value came out at 33900 MFI. Further, in assay [5], the “100 nM Ag Bound” value came out at 66.5 RU; the affinity, expressed as Kd, was 6 nM; the koff came out at 0.00372 s⁻¹; the kon amounted to 620000 M⁻¹ s⁻¹. Moreover, the t1/2 in assay [5] came out at 3.1 min. Also, the “100 nM Ag Bound” value in assay [6] stood at 0.2 RU. Further, in assay [7], the “EC50 (potentiation), 500 pM hCD40L, Ramos NFkB-luc” value was found to be 8.14e-12 M; the “Max % activation, no ligand, Ramos NFkB-luc” value amounted to 8%; the “Max % inhibition, 500 pM hCD40L, Ramos NFkB-luc” value was -130%. In assay [8], the response was half-maximal at 0.45 nM (EC50) and the “MFI at 100 nM” value amounted to 2620 MFI.

B2: 21520P2 (antibody, human IgG4 S228P, kappa, V domains shown)
VH: EVQLVESGGGLVQPGGSLRLSCAASGFTFGSYGMAWVRQAPGKGLEWVSAISGSGDYTNYADSVKRRFTISRDNSKNTLYLQMSSLRAEDTAVYYCAKEKTGTTGYLYSGMDVWGQGTTVTVSS
VL: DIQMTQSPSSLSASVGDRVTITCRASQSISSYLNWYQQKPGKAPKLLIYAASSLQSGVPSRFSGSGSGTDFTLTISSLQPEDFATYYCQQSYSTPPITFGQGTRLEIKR
notes: parental bivalent anti-CD40 mAb; common light chain; also called H4sH21520P2
For the molecule B2, in assay [1], the “IC50, 10 nM hCD40L, THP-1 NFkB-luc” value amounted to 0.437 nM; the “Max % activation, no ligand, THP-1 NFkB-luc” value amounted to 1%; the “Max % inhibition, 10 nM hCD40L, THP-1 NFkB-luc” value is 97%. In addition, in assay [2], the EC50 turned out to be 0.82 nM and the “MFI at 100 nM” value was found to be 20700 MFI. In assay [3], the “EC50, no ligand, Raji NFkB-luc” value was greater than 100 nM; the “IC50, 900 pM hCD40L, Raji NFkB-luc” value stood at 7.7e-11 M; the “Max % activation, no ligand, Raji NFkB-luc” value was determined as 25%; the “Max % inhibition, 900 pM hCD40L, Raji NFkB-luc” value stood at 81%. Further, in assay [4], the midpoint of the response, the EC50, lay at 3.7 nM and the “MFI at 100 nM” value turned out to be 24100 MFI. Further, in assay [5], the “100 nM Ag Bound” value was 67.2 RU, the dissociation constant (Kd) came to 69.9 nM, the koff amounted to 0.0803 s⁻¹ and the kon worked out at 1.15e+06 M⁻¹ s⁻¹. In assay [5], this molecule registered a t1/2 of 0.1 min. Besides, in assay [6], the “100 nM Ag Bound” value came out at 0.2 RU. Moreover, in assay [7], the “EC50, no ligand, Ramos NFkB-luc” value was greater than 10 nM; the “IC50, 500 pM hCD40L, Ramos NFkB-luc (three highest concentrations excluded, hook effect)” value worked out at 8.06e-11 M; the “Max % activation, no ligand, Ramos NFkB-luc” value turned out to be 49%; the “Max % inhibition, 500 pM hCD40L, Ramos NFkB-luc” value came to 63%. In assay [8], the midpoint of the response, the EC50, lay at 0.8 nM and the “MFI at 100 nM” value was determined as 2450 MFI.
